Reference: patent US20240270846A1 (published 2024)
Changes are numbered by the printed parent chain. Names and notes keep the numbering of the source. One block for each binder: values may come before it. Where no end group is shown, it is not given here.

Legend:
[1] = molecular target: human CD137 expressed on cells (human, UniProt Q07011 24-255); test: cell-based or functional assay
[2] = molecular target: T1, biotin-labeled human CD137 fused to human IgG1 Fc fragment (human, biotin-labeled); test: ECL, IgG with biotinylated antigen
T1 construct: also called human CD137-Fc; biotin-human CD137-Fc

[3] = molecular target: T2, CD3 epsilon peptide antigen (human, also: biotin-labeled as coated antigen, free as competitor, biotin position not given here); test: ECL, IgG with biotinylated antigen
T2 construct: also called biotin-labeled CD3 epsilon peptide; CD3 peptide
T2 peptide: QDGNEEMGGITQTPY

[4] = molecular target: T3, recombinant human CD137 (human, UniProt Q07011 24-186); test: SPR (Biacore T200, 37 degrees C), antibody captured by anti-human Fc, antigen as analyte, 1:1 model
T3 construct: also called hCD137

[5] = molecular target: T4, recombinant human CD3 (human, UniProt P07766 23-126); test: as above
T4 construct: also called hCD3

[6] = molecular target: T5, biotin-labeled cynomolgus monkey CD137 fused to human IgG1 Fc fragment (cynomolgus monkey, UniProt Q07011 24-186 (human entry), limits assumed, biotin-labeled); test: beads ELISA, biotin labeled cyno CD137-Fc
T5 construct: the assay used the fusion to human IgG1 Fc; also called cyno CD137-Fc
T5 chain: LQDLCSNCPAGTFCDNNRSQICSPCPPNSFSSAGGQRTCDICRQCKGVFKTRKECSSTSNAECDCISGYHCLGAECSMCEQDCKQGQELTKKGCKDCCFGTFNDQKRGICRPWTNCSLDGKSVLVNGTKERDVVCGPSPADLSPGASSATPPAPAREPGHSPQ

[7] = molecular target: T2, CD3 epsilon peptide antigen; test: ELISA, IgG supernatant, biotinylated antigen on streptavidin plate
[8] = molecular target: T6, biotin-labeled human CD137 fused to human IgG1 Fc fragment (human CD137-Fc) (human, biotin-labeled); test: bead ELISA on biotin-human CD137-Fc, 250 ng IgG; free CD3 epsilon 62.5 pmol as competitor
T6 construct: also called biotin-human CD137-Fc

[9] = molecular target: T6, biotin-labeled human CD137 fused to …; test: bead ELISA on biotin-human CD137-Fc, 250 ng IgG; free human IgG1 Fc 62.5 pmol as control competitor
[10] = molecular target: T6, biotin-labeled human CD137 fused to …; test: bead ELISA on biotin-human CD137-Fc; decrease of signal with free CD3 epsilon as competitor against free Fc

B1: GPC3/CD137 × CD3 (other)
VH 1: QVQLQQWGAGLLKPSETLSLTCAVYGGSFSGYYWSWIRQSPEKGLEWIGEINHGGYVTYNPSLESRVTISVDTSKNQFSLKLSSVTAADTAVYYCARDYGPGNYDWYFDLWGRGTLVTVSS
VL 1: EIVLTQSPATLSLSPGERATLSCRASQSVSSYLAWYQQKPGQAPRLLIYDASNRATGIPARFSGSGSGTDFTLTISSLEPEDFAVYYCQQRSNWPPALTFGGGTKVEIK
VH 2: QVQLVESGGGLVQPGRSLRLSCAASGFTFSNAWMHWVRQAPGKGLEWVAQIKDRANSYNTYYAESVKGRFTISRDDSKNSIYLQMNSLKTEDTAVYYCRYVHYTTYAGSSFSYGVDAWGQGTTVTVSS
VL 2: DIVMTQSPLSLPVTPGEPASISCRSSQPLVHSNRNTYLHWYQQKPGQAPRLLIYKVSNRFSGVPDRFSGSGSGTDFTLKISRVEAEDVGVYYCGQGTQVPYTFGQGTKLEIK
VH 3: QVQLVQSGAEVKKPGASVTVSCKASGYTFTDYEMHWIRQPPGEGLEWIGAIDGPTPDTAYSEKFKGRVTLTADKSTSTAYMELSSLTSEDTAVYYCTRFYSYTYWGQGTLVTVSS
VL 3: B1 VL 2
- Luminescence against CD137 positive cells relative to that against GPC3 positive cells, 1 nM [1]: ~107%
- Luminescence against CD137 positive cells relative to that against GPC3 positive cells, 10 nM [1]: ~128%

B4: DADU01_3 #001 (antibody, human IgG1, V domains shown)
VH: QVQLVESGGGLVQPGRSLRLSCAASGFTFSIAWMHWVRQAPGKGLEWVAQIKDRVNAYEAYYAPSVKGRFTISRDDSKNSIYLQMNSLKTEDTAVYYCRYVHYASYYDLLGYGGVDAWGQGTTVTVSS
VL: B1 VL 2 with P28S
notes: VH in human IgG1 CH1-Fc plasmid; GLS3000 light chain; also called dBBDu_126; dBBDu126
- binding result [6]: no binding (tested: 25 micro L of 50 ng/micro L purified IgG)

B6: dBBDu193/L127 (antibody, V domains shown)
VH: QVQLVESGGGLVQPGRSLRLSCAASGFTFSNAWMHWVRQAPGKGLEWVAQIKDRSNQYATYYAPSVKGRFTISRDDSKNSIYLQMNSLKTEDTAVYYCHYVHYSAASTLLPSFGVDAWGQGTTVTVSS
VL: DIVMTQSPLSLPVTPGEPASISCRASEELLHINRHIFLHWYQQKPGQAPRLLIYKVYNRFTGVPDRFSGSGSGTDFTLKISRVEAEDVGVYYCAQGTSVPFTFGQGTKLEIK
notes: also called dBBDu_193 / dBBDu.L127
- ELISA signal with Free CD3e 62.5 pmol [8]: 2470
- ELISA signal with Free Fc 62.5 pmol [9]: 6080
- Signal decrease [10]: 59.4%

B7: dBBDu193/L132 (antibody, V domains shown)
VH: B6 VH
VL: B6 VL with R24Q, A25T, L30V, H35F, Y57S, T61S
notes: also called dBBDu_193 / dBBDu.L132
- ELISA signal with Free CD3e 62.5 pmol [8]: 10400
- ELISA signal with Free Fc 62.5 pmol [9]: 116000
- Signal decrease [10]: 91%

The next lines start with the values.

- binding result [2]: binds
- binding result [3]: binds
B2: dBBDu_011 (antibody, V domains shown)
VH: QVQLVESGGGLVQPGRSLRLSCAASGFTFSNAWMHWVRQAPGKGLEWVAQIKDKSSLYNTYYAPSVKGRFTISRDDSKNSIYLQMNSLKTEDTAVYYCRYVHYGASYGFLFAGYGVDAWGQGTTVTVSS
VL: B1 VL 2 with P28S
notes: Converted to IgG: VH joined to human IgG1 constant domains; also called clone 011

- Kd [4]: 37.7 nM
- koff [4]: 0.0206 s⁻¹
- kon [4]: 547000 M⁻¹ s⁻¹
- Kd [5]: 19.7 nM
- koff [5]: 0.00161 s⁻¹
- kon [5]: 81800 M⁻¹ s⁻¹
B3: GPC3/CD137xCD3 trispecific antibody (other)
VH 1: B1 VH 1
VL 1: B1 VL 1
VH 2: B1 VH 2
VL 2: B1 VL 2
VH 3: B1 VH 3
VL 3: B1 VL 2
notes: Made by Fab-arm exchange of mAb A (CrossMab, each arm carrying Fv A1 and Fv A2) with mAb B (conventional IgG); Fc is Fc gamma R silent (L235R, G236R, S239K) and deglycosylated (N297A); also called GPC3/CD137 × CD3; anti-GPC3/CD137×CD3

- binding result [7]: binds
B5: dBBDu_115 (antibody, IgG1, V domains shown)
VH: B2 VH with S55A, S56N, L57S, A105S
VL: B1 VL 2 with P28S
notes: IgG1 format with GLS3000 light chain

- ELISA signal with Free CD3e 62.5 pmol [8]: 9750
- ELISA signal with Free Fc 62.5 pmol [9]: 75100
- Signal decrease [10]: 87%
B8: dBBDu189/L126 (antibody, V domains shown)
VH: B6 VH with V48I, S104A, A105Q, T108S
VL: B6 VL with A25T, H35Y, Y57Q, T61S, T97S, S98A
